# Results from the supplement of paper PMC9112550, “Optimization of the antimicrobial peptide Bac7 by deep mutational scanning” (BMC Biology, 2022).
# System: Escherichia coli TOP10
# Assay: shrunken log2 fold change of peptide-encoding DNA abundance (4.5 h post-induction vs induction); higher = less antimicrobial activity (less host growth inhibition)
# Settings: time post-induction: 4.5 h; library: site-saturation at positions 5, 18, 19, 20
# 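Note: peptides expressed intracellularly from a pBAD plasmid library in pooled LB shake-flask culture, induced with 0.3% L-arabinose, DNA abundance read by NGS, three biological replicates, DESeq2 with apeglm shrinkage.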
row,Sequence,shrunken log2 fold change
1,RRIRLRPPRLPRPRPRPKGSPRP,-0.0276
2,RRIRIRPPRLPRPRPRPAQDPRP,-0.0552
3,RRIRVRPPRLPRPRPRPDYWPRP,-0.449
4,RRIRPRPPRLPRPRPRPVQSPRP,0.131
5,RRIRTRPPRLPRPRPRPHLTPRP,0.101
6,RRIRGRPPRLPRPRPRPMHIPRP,1.77
7,RRIRNRPPRLPRPRPRPNSCPRP,-0.137
8,RRIRYRPPRLPRPRPRPKSSPRP,-0.147
9,RRIRPRPPRLPRPRPRPKRRPRP,-0.093
10,RRIRGRPPRLPRPRPRPCEAPRP,0.838
11,RRIRVRPPRLPRPRPRPPIKPRP,-0.151
12,RRIRMRPPRLPRPRPRPVLNPRP,-0.232
13,RRIRTRPPRLPRPRPRPRYHPRP,-0.573
14,RRIRTRPPRLPRPRPRPCHSPRP,-0.039
15,RRIRYRPPRLPRPRPRPWPQPRP,0.0526
16,RRIRDRPPRLPRPRPRPGCKPRP,0.0398
17,RRIRARPPRLPRPRPRPWHDPRP,-0.00134
18,RRIRARPPRLPRPRPRPWAQPRP,0.0167
19,RRIRQRPPRLPRPRPRPNSKPRP,-0.429
20,RRIRSRPPRLPRPRPRPVEPPRP,-0.0608

row,Sequence,shrunken log2 fold change
1,RRIRYRPPRLPRPRPRPCSHPRP,-0.566
2,RRIRSRPPRLPRPRPRPQACPRP,0.125
3,RRIRPRPPRLPRPRPRPYKGPRP,-0.437
4,RRIRVRPPRLPRPRPRPKVQPRP,3.74
5,RRIRARPPRLPRPRPRPPVYPRP,0.0965
6,RRIRIRPPRLPRPRPRPCLFPRP,-0.639
7,RRIRYRPPRLPRPRPRPFVMPRP,-1.07
8,RRIRHRPPRLPRPRPRPLVAPRP,-0.103
9,RRIRSRPPRLPRPRPRPLSTPRP,-0.369
10,RRIRCRPPRLPRPRPRPPQKPRP,0.627
11,RRIRIRPPRLPRPRPRPARAPRP,0.307
12,RRIRDRPPRLPRPRPRPNRNPRP,-0.227
13,RRIRTRPPRLPRPRPRPQQNPRP,-0.0459
14,RRIRTRPPRLPRPRPRPWFVPRP,-0.243
15,RRIRRRPPRLPRPRPRPFRHPRP,-0.212
16,RRIRARPPRLPRPRPRPNGGPRP,-0.01
17,RRIRWRPPRLPRPRPRPGETPRP,0.174
18,RRIRQRPPRLPRPRPRPFPAPRP,-0.0923
19,RRIRPRPPRLPRPRPRPGFYPRP,-0.421
20,RRIRLRPPRLPRPRPRPNTGPRP,-0.359

row,Sequence,shrunken log2 fold change
1,RRIRMRPPRLPRPRPRPHTWPRP,-0.0904
2,RRIRSRPPRLPRPRPRPPGIPRP,0.157
3,RRIRQRPPRLPRPRPRPPNGPRP,-0.00787
4,RRIRVRPPRLPRPRPRPDKPPRP,0.028
5,RRIRIRPPRLPRPRPRPNDTPRP,-1.01
6,RRIRARPPRLPRPRPRPFSSPRP,-0.159
7,RRIRARPPRLPRPRPRPNNRPRP,-0.326
8,RRIRWRPPRLPRPRPRPESSPRP,0.759
9,RRIRKRPPRLPRPRPRPKMLPRP,0.185
10,RRIRIRPPRLPRPRPRPVESPRP,-0.0832
11,RRIRNRPPRLPRPRPRPVTIPRP,-0.463
12,RRIRGRPPRLPRPRPRPWVGPRP,0.12
13,RRIRKRPPRLPRPRPRPGHCPRP,0.00694
14,RRIRYRPPRLPRPRPRPHNLPRP,-0.131
15,RRIRSRPPRLPRPRPRPHVAPRP,-0.136
16,RRIRKRPPRLPRPRPRPHRKPRP,-0.0475
17,RRIRNRPPRLPRPRPRPGSHPRP,-0.291
18,RRIRARPPRLPRPRPRPHIFPRP,0.141
19,RRIRFRPPRLPRPRPRPEDAPRP,0.00922
20,RRIRCRPPRLPRPRPRPPYVPRP,-0.455
